What was measured:
[1] = biological target: Bone morphogenetic protein (BMP)-2 (human) (UniProt P12643); experiment: ELISA; as a1 but with 4 µM heparin (40-fold excess over 100 nM TNCIII1-5) during the incubation with TNCIII1-5
neurotrophin-3 (human) = neurotrophin-3 (human) (UniProt P20783); experiment: as above
[2] = biological target: TNCIII1–5 (first five fibronectin type III-like repeats of human tenascin C, with N-terminal transglutaminase substrate and C-terminal 6xHis tag) (UniProt P24821); experiment: SPR; Biacore X100; about 450 RU TNCIII1–5 amine-coupled on Sensor Chip C1, BSA on the control channel; growth factors flowed in PBS with 0.1% BSA at 30 µl/min; Langmuir fit
[3] = biological target: Bone morphogenetic protein (BMP)-2 (human) (UniProt P12643); experiment: ELISA; cross-competition: growth factor (50 nM) coated; 10 nM TNCIII1–5 with full length TNC (0, 0.2, 0.6, 1.9, 5.6, […], 50 nM) in PBST, 1 h RT; TNCIII1–5 detected with HRP-anti-HIS; relative to binding without TNC
FGF-2 (human) = FGF-2 (human) (UniProt P09038); experiment: as above
Chain of FGF-2 (human) (P09038 143-288): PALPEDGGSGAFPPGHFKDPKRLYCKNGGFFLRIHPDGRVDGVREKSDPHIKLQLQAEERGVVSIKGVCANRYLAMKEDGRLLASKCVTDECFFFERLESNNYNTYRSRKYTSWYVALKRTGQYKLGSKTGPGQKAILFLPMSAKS

GST-TNCIII5 = biological target: T1, GST-TNCIII5 (human, UniProt P24821 983-1074); experiment: ELISA; GST-TNCIII domains (1 µM in PBS) coated, blocked with 2% BSA; 2 nM PDGF-BB, 1 h RT; detected with anti-PDGF-BB and HRP anti-mouse; details: both partners purified
T1 construct: tenascin C, fifth TNCIII domain, T983–A1074; source: E. coli BL21, purified (Ni-NTA agarose)
T1 sequence (looked up): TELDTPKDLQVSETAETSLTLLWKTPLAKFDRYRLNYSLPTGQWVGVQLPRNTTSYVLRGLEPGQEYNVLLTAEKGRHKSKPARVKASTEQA

Chain of Bone morphogenetic protein (BMP)-2 (human) (P12643 283-396): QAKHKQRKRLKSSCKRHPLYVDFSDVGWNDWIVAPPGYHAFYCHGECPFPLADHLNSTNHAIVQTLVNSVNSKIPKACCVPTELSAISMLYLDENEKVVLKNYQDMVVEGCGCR

Molecule: TNCIII1–5 (first five fibronectin type III-like repeats of human tenascin C, with N-terminal transglutaminase substrate and C-terminal 6xHis tag) (from UniProt P24821 622-1074) (domain or fragment)
- percent of the original binding retained with 4 µM heparin [1]: 66%
- percent of the original binding retained with 4 µM heparin (neurotrophin-3 (human)): 57%

Molecule: TGF-β1 (ligand)
- Kd [2]: 20.3 nM
- koff [2]: 0.000237 s⁻¹
- kon [2]: 11700 M⁻¹ s⁻¹

Molecule: full-length native human tenascin C (from UniProt P24821 23-2201) (natural protein)
- IC50 [3]: > 50 nM
- percent inhibition of TNCIII1–5 binding at 50 nM TNC [3]: 34%
- IC50 (FGF-2 (human)): 5.6 nM

B1: PDGF-BB (ligand, human, UniProt P01127 82-190, looked up)
chain: SLGSLTIAEPAMIAECKTRTEVFEISRRLIDRTNANFLVWPPCVEVQRCSGCCNNRNVQCRPTQVQLRPVQVRKIEIVRKKPIFKKATVTLEDHLACKCETVAAARPVT
notes: Two B chains by its name; source: bought: Gibco
- fold binding level against TNCIII4 (GST-TNCIII5): 4 fold

B2: neurotrophin-3 (ligand)
chain: YAEHKSHRGEYSVCDSESLWVTDKSSAIDIRGHQVTVLGEIKTGNSPVKQYFYETRCKEARPVKNGCRGIDDKHWNSQCKTSQTYVRALTSENNKLVGWRWIRIDTSCVCALSRKIGRT
- Kd [2]: 21 nM
- koff [2]: 0.00106 s⁻¹
- kon [2]: 50700 M⁻¹ s⁻¹
